# Assay results published in US7235627B2 (Novo Nordisk A/S, priority 1996, dated 2007).
# Columns and labels:
# [1] = molecular target: T1, cloned human GLP-1 receptor (Homo sapiens, UniProt P43220); experiment: biochemical
# [2] = molecular target: T1, cloned human GLP-1 receptor; experiment: cell-based or functional assay
# T1 sequence (P43220 24-463): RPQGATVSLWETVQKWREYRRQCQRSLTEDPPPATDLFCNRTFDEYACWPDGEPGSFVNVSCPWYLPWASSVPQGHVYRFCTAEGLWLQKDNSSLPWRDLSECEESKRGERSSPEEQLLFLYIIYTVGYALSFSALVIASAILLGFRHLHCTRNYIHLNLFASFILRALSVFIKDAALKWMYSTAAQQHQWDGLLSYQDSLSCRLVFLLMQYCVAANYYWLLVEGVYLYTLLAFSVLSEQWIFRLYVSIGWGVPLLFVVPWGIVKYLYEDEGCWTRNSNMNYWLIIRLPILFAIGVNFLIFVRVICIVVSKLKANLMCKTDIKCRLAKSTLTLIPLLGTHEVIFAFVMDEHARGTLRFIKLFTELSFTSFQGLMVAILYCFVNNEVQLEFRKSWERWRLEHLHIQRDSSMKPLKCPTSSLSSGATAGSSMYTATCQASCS
"EC50, pM (stimulation of cAMP formation) [2]",Compound,EC50 [1]
–,"CC[C@H](C)[C@H](NC(=O)[C@H](Cc1ccccc1)NC(=O)[C@H](CCC(=O)O)NC(=O)[C@H](CCCNC(=N)N)NC(=O)[C@H](C)NC(=O)[C@H](C)NC(=O)[C@H](CCC(N)=O)NC(=O)CNC(=O)[C@H](CCC(=O)O)NC(=O)[C@H](CC(C)C)NC(=O)[C@H](Cc1ccc(O)cc1)NC(=O)[C@H](CO)NC(=O)[C@H](CO)NC(=O)[C@@H](NC(=O)[C@H](CC(=O)O)NC(=O)[C@H](CO)NC(=O)[C@@H](NC(=O)[C@H](Cc1ccccc1)NC(=O)[C@@H](NC(=O)CNC(=O)[C@H](CCC(=O)O)NC(=O)[C@H](C)NC(=O)[C@@H](N)Cc1c[nH]cn1)[C@@H](C)O)[C@@H](C)O)C(C)C)C(=O)N[C@@H](C)C(=O)N[C@@H](Cc1c[nH]c2ccccc12)C(=O)N[C@@H](CC(C)C)C(=O)N[C@H](C(=O)N[C@@H](CCCNC(=N)N)C(=O)NCC(=O)N[C@@H](CCCNC(=N)N)C(=O)NCC(=O)N[C@@H](CCCCNC(=O)CCCCCCCCCCC(=O)O)C(=O)O)C(C)C [Example 16, Arg^26,34Lys^38(N^ε-(ω-carboxyundecanoyl))-GLP-1(7–38)-OH]",3.5 pM
8.8 pM,"Arg^26,34Lys^36(N^ε-(ω-carboxyheptanoyl))-GLP-1(7-36)-OH (peptide)",–
3.5 pM,"Arg^26,34Lys^38(N^ε-(ω-carboxyundecanoyl))-GLP-1(7-38)-OH (peptide)",–
60 pM,Arg^34Lys^26(N^ε-(γ-glutamyl(N^α-hexadecanoyl)))-GLP-1(7-37)-OH (peptide),–
